Legend:
HP1α (untagged, wt) = experiment: EMSA; conditions: 20 mM HEPES pH 7.5, 70 mM KCl, 1 mM DTT
HP1α-16aa-mEGFP = experiment: EMSA; conditions: 20 mM HEPES pH 7.5, 70 mM KCl, 1 mM DTT

In the case of 187 bp DNA, the K half (HP1α (untagged, wt)) is reported as 880 nM and the K half (HP1α-16aa-mEGFP) is reported as 580 nM.
